# In article PMC7596504, “Molecular mechanism of the MORC4 ATPase activation” (Nature Communications, 2020):
# B1: ATPaseCW: ATPaseCW cassette (aa 29–486) of human MORC4 (Q8TE76) (protein)
# chain: GIRLSTMSPRYLQSNSSSHTRPFSAIAELLDNAVDPDVSARTVFIDVEEVKNKSCLTFTDDGCGMTPHKLHRMLSFGFTDKVIKKSQCPIGVFGNGFKSGSMRLGKDALVFTKNGGTLTVGLLSQTYLECVQAQAVIVPIVPFNQQNKKMIITEDSLPSLEAILNYSIFNRENDLLAQFDAIPGKKGTRVLIWNIRRNKNGKSELDFDTDQYDILVSDFDTEEKMTGGVTSELPETEYSLRAFCGILYMKPRMKIFLRQKKVTTQMIAKSLANVEYDTYKPTFTNKQVRITFGFSCKNSNQFGIMMYHNNRLIKSFEKVGCQVKPTRGEGVGVIGVIECNFLKPAYNKQDFEYTKEYRLTINALAQKLNAYWKEKTSQDNFETSTVARPIPKVPDQTWVQCDECLKWRKLPGKIDPSMLPARWFCYYNSHPKYRRCSVPEEQELTDEDLCLSKAKKQE
# modifications: left off: GST, end not stated, cleaved
# What was measured:
# [1] = tested on: MORC4; assay: ATPase activity assay (EnzChek Phosphate Assay Kit); assay type: biochemical, human; set-up: Rate of ATP hydrolysis: unit not given here
# Experimental: (§1) To determine whether MORC4 is catalytically active, we produced the ATPase domain of human MORC4 and examined its ability to hydrolyze ATP in enzymatic assays (Fig. 1a–c). Following incubation of the ATPase domain with ATP, 2-amino-6-mercapto-7-methylpurine ribonucleoside and nucleoside phosphorylase, the release of inorganic phosphate generated by the hydrolysis of ATP to ADP was monitored by measuring an increase in absorbance at 360 nm.
# (§2) The ATPase assays were performed using the EnzChek Phosphate Assay Kit (Invitrogen, item # E6646). The reactions were carried out on 1.0 µM of MORC4 His-ATPase or ATPaseCW (WT and mutants), in the presence and absence of 1 µM 601 DNA or 50 µM of unmodified H3 or H3K4me3 peptide (aa 1–12 of H3) in a buffer containing 50 mM Tris-HCl (pH 7.5), 150 mM NaCl, 1 mM MgCl2, 0.1 mM sodium azide, 200 µM MESG, and 1 U of PNP. In assay with the nucleosome, 0.5 µM of MORC4 ATPaseCW and 0.5 µM NCP167 (Activemotif) were used. The reaction was started by adding 2 mM ATP to the mixture at room temperature, and the release of inorganic phosphate was monitored by measuring the absorbance at 360 nm on a Nanodrop 2000c spectrophotometer (Thermo Scientific). In the presence of inorganic phosphate, produced by the hydrolysis of ATP to ADP, MESG is enzymatically converted to ribose 1-phosphate and […] by PNP, resulting in a shift in the wavelength absorbance from 330 nm for MESG to 360 nm for the product. The rate of ATP self-hydrolysis was measured in parallel. Error was calculated as the S.D. of at least three separate experiments (two in Fig. 4j).
# [2] = molecular target: T1, MORC4 (Homo sapiens, UniProt Q8TE76); assay: as above; assay type: biochemical; set-up: Rate of ATP hydrolysis: unit not given here; settings: Supp. Fig. 1
# T1 construct: the ATPaseCW cassette (aa 29–486) of human MORC4 (Q8TE76); GST (cleaved yes); made in house; host or cells: E. coli Rosetta2 (DE3) pLysS or BL21 (DE3) RIL
# T1 sequence (Q8TE76 1-937): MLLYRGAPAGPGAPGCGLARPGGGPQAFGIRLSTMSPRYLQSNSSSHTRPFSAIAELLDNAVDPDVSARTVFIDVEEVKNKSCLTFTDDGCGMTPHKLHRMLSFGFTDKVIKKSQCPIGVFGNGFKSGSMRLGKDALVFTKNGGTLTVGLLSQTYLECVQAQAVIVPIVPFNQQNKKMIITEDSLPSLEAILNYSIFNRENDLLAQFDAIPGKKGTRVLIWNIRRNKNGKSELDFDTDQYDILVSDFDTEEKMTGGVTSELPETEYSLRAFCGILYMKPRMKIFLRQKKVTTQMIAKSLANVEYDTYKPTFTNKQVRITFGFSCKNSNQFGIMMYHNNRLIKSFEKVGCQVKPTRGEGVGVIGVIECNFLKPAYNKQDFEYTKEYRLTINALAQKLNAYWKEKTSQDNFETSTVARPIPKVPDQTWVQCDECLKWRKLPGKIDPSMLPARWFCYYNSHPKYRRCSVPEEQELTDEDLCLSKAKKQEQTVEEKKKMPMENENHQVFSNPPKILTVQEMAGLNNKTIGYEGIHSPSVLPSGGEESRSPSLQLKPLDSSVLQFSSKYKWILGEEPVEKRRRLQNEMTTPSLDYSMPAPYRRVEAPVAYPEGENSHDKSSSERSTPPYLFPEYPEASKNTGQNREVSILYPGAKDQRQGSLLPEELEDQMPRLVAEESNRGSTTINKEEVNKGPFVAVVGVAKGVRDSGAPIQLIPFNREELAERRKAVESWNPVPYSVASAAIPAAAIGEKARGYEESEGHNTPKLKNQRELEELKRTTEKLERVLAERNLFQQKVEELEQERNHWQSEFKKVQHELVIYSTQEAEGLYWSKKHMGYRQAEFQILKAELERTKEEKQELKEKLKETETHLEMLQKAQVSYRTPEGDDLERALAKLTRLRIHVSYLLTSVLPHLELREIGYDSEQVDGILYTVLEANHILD
# Experimental: as §1, §2
# [3] = tested on: NCP147; assay: Fluorescence polarization binding to NCP147
# [4] = tested on: NCP147; assay: EMSA with NCP147; assay type: binding; settings: 5 nM 147 bp fluorescein-labeled NCP, pH 7.5, 4 °C
# Experimental: EMSAs were performed by mixing increasing amounts of MORC4 ATPase with 5 nM 147 bp fluorescein-labeled NCP in 25 mM Tris-HCl pH 7.5, 75 mM NaCl, 25 mM Tris-HCl pH 7.5, 0.005% Tween 20, and 10% glycerol buffer in a 12 μL reaction volume. Each sample was incubated at 4 °C for 5 min and then loaded onto a 5% native polyacrylamide gel. Electrophoresis was performed in 0.3× Tris-borate-EDTA (TBE) at 300 V for 90 min. Fluorescein fluorescence images were acquired with a Typhoon Phosphor Imager.
molecule,measurement,setting,value
B1,Rate of ATP hydrolysis,"[1]; + H3K4me3 + 601 DNA, Fig. 1c, mean of 3",0.3353
same,Rate of ATP hydrolysis,"[1]; + H3K4me3 + 601 DNA, Fig. 1c, replicate 1",0.3507
same,Rate of ATP hydrolysis,"[1]; + H3K4me3 + 601 DNA, Fig. 1c, replicate 2",0.3597
same,Rate of ATP hydrolysis,"[1]; + H3K4me3 + 601 DNA, Fig. 1c, replicate 3",0.2954
same,Rate of ATP hydrolysis,"[1]; + H3un + 601 DNA, Fig. 1c, mean of 3",0.3154
same,Rate of ATP hydrolysis,"[1]; + H3un + 601 DNA, Fig. 1c, replicate 1",0.2842
same,Rate of ATP hydrolysis,"[1]; + H3un + 601 DNA, Fig. 1c, replicate 2",0.3368
same,Rate of ATP hydrolysis,"[1]; + H3un + 601 DNA, Fig. 1c, replicate 3",0.3251
same,Rate of ATP hydrolysis,"[1]; no DNA, no peptide, 1.0 µM protein, 2 mM ATP, pH 7.5, room temperature, absorbance 360 nm, Fig. 1b,c, mean",0.09309
same,Rate of ATP hydrolysis,"[1]; no DNA, no peptide, Fig. 1b,c, replicate 1",0.08409
same,Rate of ATP hydrolysis,"[1]; no DNA, no peptide, Fig. 1b,c, replicate 2",0.08589
same,Rate of ATP hydrolysis,"[1]; no DNA, no peptide, Fig. 1b,c, replicate 3",0.1093
same,Rate of ATP hydrolysis,"[2]; 0.5 µM MORC4 ATPaseCW + 0.5 µM NCP167, mean of 3",0.468
same,Rate of ATP hydrolysis,"[2]; 0.5 µM MORC4 ATPaseCW + 0.5 µM NCP167, replicate 1",0.5696
same,Rate of ATP hydrolysis,"[2]; 0.5 µM MORC4 ATPaseCW + 0.5 µM NCP167, replicate 2",0.408
same,Rate of ATP hydrolysis,"[2]; 0.5 µM MORC4 ATPaseCW + 0.5 µM NCP167, replicate 3",0.4265
same,Rate of ATP hydrolysis,"[2]; 0.5 µM MORC4 ATPaseCW, without NCP167, mean of 3",0.2339
same,Rate of ATP hydrolysis,"[2]; 0.5 µM MORC4 ATPaseCW, without NCP167, replicate 1",0.309
same,Rate of ATP hydrolysis,"[2]; 0.5 µM MORC4 ATPaseCW, without NCP167, replicate 2",0.1285
same,Rate of ATP hydrolysis,"[2]; 0.5 µM MORC4 ATPaseCW, without NCP167, replicate 3",0.2641
same,decrease in binding to NCP147 compared to NCP207,[3]; NCP147 vs NCP207 (peer review file),2 fold
same,S1/2,"[3]; fluorescence polarization, pH 7.5, 75 mM NaCl, room temperature, 10 min, mean of n = 3",0.4 µM
same,binding to NCP147 in EMSA,[4],bound to NCP147
